Assay: label from the status in PepcDB records

Row | Sequence | protein production
1 | MNYNSIPTEIIDTILAELKIGLTLVNNTGKIIYFNQLAGELLGWDNKLPENTILSCHKKENQPKVIEKLNQPAAMEWHKVIKTQNRFIENAYSPINIPDKFMGAMILTKDVTAREESLEKLKKNAETDALTGLYNRNLFHTVIQSYITESKPYGLIMLDISGLKYINDHFGHEEGDRILKEAAEAIRSSIRDTDFAFRFGGDEFLILTSYQEAVLKTIANRIRSKNKIPTENTPAVLNLSLGYATSLEEKNMEAVLSSADQRMYRDKQLFYLGDGKYFKQ | failed
2 | MNYSKLKSIPIYFSLLAISVSNVGCVQQDVEANLTSKTLSENLDSKALRHKNKEQDIESLLAQLTLEEKISLVHANTKFANAAVERLGIHSMEMSDGPHGVRRQISRDSWKPAGWDDDQATYLPPLTAVAASWDPQMATLHGNVLGSEARHRNKDVILGPGVNLARLPLYGRNFEYLGEDPFLAAKLVVPEIIAIQANDVAATVKHFALNTQELNRHGVDATPDERTLREVYLPAFEAAVKEGNTYAMMGSYNNVYGTNANQNKHLIMDILKGEWGYQGLLMTDWDVDINTYDAAMNGLDLEMGTRAKSYDDYFLAKPLLKMIQSGKVPVAVLDDKVRRILRVQLSIGMMDKQRFSGQRNTQEHRDFSRQIATQGVVLLKNESVASANHTNTVLPLDKNKVKNILVLGPNADKKHGSGGGSSQVKSLWEITPLQGLKDKLGDNVEIQFMRARSQSGVQPIAEDFVKTNNRGTGTPAWRLIEYKTKDRNKKAAHYGWLPESSYNSPLGDVIQHINLKADIMPLASGEHVLKLGGKGNVNLVINGKEVINTTLSGDKTYQHKLTLKQGKKYVFTLGYDGADNVVLGWNAPGSPFSTKDEYLAAAKNADAVIYYAGLSHADDRESKDRSNMVLPNNQDDIISDLIAVNSTTVVFVIGGSAVEMPWAEQANAIVWGWYGGMEAGHSYADILFGDVNPSGKMPITLPKKLTDTAPIVLNDYNEKTSTYPEGVFIGYRWFEQQNIEPLFPFGHGLSYTHFSFGDISLNKDVISAGETITASVKITNTGKVAGAEVVQLYLHDEESSVPRPVKELKGFEKVFLQPGESQTVMLTLTQRDLSFWDVNTKNWLAEQGQFSVHIGSSVNDIKTSTSFSYQ | failed
3 | MNYVKYHLLALLVTLLVAGSFISSEKLSGVVNPFSLTLLRFVIAAFTLLPFVLFKAQYRKGIIRALPRSLIMSVFFSVFFICMFEALKTTTPLNTGTLYTLVPFLTAIFSIFAFKEKITKKRLVVYLIGSAGTSWIIFGGDIEALLAFSLNGGDALFIGGCISMVCYSISMKFLYRGDEIIVIVFCTLFCGALWMLLALLVFNQPLQWHLLKSDLWFHMGYLALFATLASTFIIQKTTVVLGPSKVMAYIYLNPICVAFLMLFIEGKSIPSIVFPGMIISLIATIVLQFQNRNNANK | failed
4 | MPAETNEYLSRFVEYMTGERKSRYTIKEYRFLVDQFLSFMNKKPDEITPMDIERYKNFLAVKKR | failed
5 | MPAFSTRHLGAVAAALALTVASPAATASAAPDAPAGLREVMFVGNNWDGTADVIRSTGDFARIGRIDVVPDKAERMAEINADPIKWIYFQAIRNGVGEGHDQLVDDMYSTPDGTSVVVSRPSFADVVSVDLATGDINWRFPVSGYRSDHMAVSPDGTRVAVSASTSNTVHVLDIRTGEQVGSFGTGDKPHENIFTRDGRYIWNMSIGDVNTALDAPWLDWTKGDRRITVVDAKTYRQVKVIDMRQRLDAIGLGDHSDAVRPAVFSPDESKLYFQVSFFNGFFEYDVAGDRITRTKTLPKNPATSEDRTTWVNDSRHHGLSMSPDGARICVAGTMDDYATVVNRDTLEEGPLVPAAKPYWATVSGDGTHCVVSESGADQVTAIDFATGEKSVSVPVGDHPQRVRIGRVAADWTGPSAG | failed
6 | MPAGCESNPRLVGHPFMTTILAIAVFGAVGCVARYLLAGGVYALAGRAFPWGTLAVNVIGAFLIGLIMEAALRTTLMSQELRLGLTIGFLGGFTTFSTFSYETFKLLEDGEFFSASLNVLASVALCLVGTWAGIMAARQL | failed
7 | MPAIFTHEGKVEGVPGNYPLTAENLFRIGLALCTLWILDKEIEEPTLSIPETNFVTLALSVGFMNAGGSVNVGKGGDIKLFLQKGEIYVLEFQPLSETDIKKLESILFGRAPIPKKTGEDIGSFKC | not failed
8 | MPAKPIDLGPMHFEKKEDAVAYLHKMLHRYDLGDKVSDDDAIILRAALAHHRDAEVKVGCGITYFSVRTADFGTRCFWLNRNDGTTEKFSHKTCIYSTLEHHHHHH | not failed

— a protein production outcome set (Wang et al. 2014)
